Measurements as given in patent publication US20240166754A1 (SYNTHEKINE, published 2024).
Numbering of substitutions follows the chain as printed.

T1: extracellular domain of mouse IL12RB1 (mIL12Rb1 ECD antigen) (mouse, UniProt Q60837 20-565)
T1 construct: also called murine IL12RB1
T1 sequence: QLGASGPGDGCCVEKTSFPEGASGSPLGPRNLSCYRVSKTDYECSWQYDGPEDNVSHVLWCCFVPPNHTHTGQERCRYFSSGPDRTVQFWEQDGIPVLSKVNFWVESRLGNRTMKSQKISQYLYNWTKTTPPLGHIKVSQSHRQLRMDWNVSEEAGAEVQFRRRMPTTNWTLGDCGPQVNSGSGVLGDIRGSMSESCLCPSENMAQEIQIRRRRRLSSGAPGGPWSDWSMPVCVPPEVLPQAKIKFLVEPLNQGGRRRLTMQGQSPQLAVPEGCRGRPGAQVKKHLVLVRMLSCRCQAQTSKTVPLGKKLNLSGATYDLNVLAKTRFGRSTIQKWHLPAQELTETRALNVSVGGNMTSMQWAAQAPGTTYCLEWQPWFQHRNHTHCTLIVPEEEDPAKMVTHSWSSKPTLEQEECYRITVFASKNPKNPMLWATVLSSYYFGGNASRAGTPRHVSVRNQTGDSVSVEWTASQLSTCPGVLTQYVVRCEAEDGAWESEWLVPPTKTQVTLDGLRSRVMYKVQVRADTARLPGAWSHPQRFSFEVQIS

B1: mIL12Rb1_VHH10 (VHH)
VHH: QVQLQESGGGSVQAGGSLRLSCAVSGYDYCGYDVRWYRQAPGKEREFVSGIDSDGSTSYADSVKGRFTISQDNAENTSYLHMFSLKPEDTAMYYCKTESPAGESAWCRNFRGMDYWGKGTQVTVSS
notes: Camel VHH
B2: mIL12Rb1_VHH2 (VHH)
VHH: B1 VHH
notes: Camel VHH
B3: mIL12Rb1_VHH14 (VHH)
VHH: B1 VHH with D52N
notes: Camel VHH
B4: mIL12Rb1_VHH7 (VHH)
VHH: B1 VHH with Q39R
notes: Camel VHH
B5: mIL12Rb1_VHH21 (VHH)
VHH: B1 VHH with Q39R
notes: Camel VHH
B6: mIL12Rb1_VHH16 (VHH)
VHH: B1 VHH with D52N, S99G
notes: Camel VHH
B7: mIL12Rb1_VHH4 (VHH)
VHH: QVQLQESGGGSVQAGGSLRLSCAASRYTYTNNFMAWFRQAPGKEREGVAAIYTGDGYAYYFDSVKGRFTISQDNDKNMLYLQMNSLKPEDTAMYYCAAMERRSGRRRMTENAEYKYWGQGTQVTVSS
notes: Camel VHH
B8: mIL12Rb1_VHH12 (VHH)
VHH: B7 VHH with D62Y, K76E, S103I, R105T
notes: Camel VHH
B9: mIL12Rb1_VHH3 (VHH)
VHH: QVQLQESGGGSVQAGGSLRLSCVASGYSYCGYDMMWYRQAPGKEREFVALITSDYSIRYEDSVEGRFSISRDNAKNTGYLLMSNLTPADTAIYYCKTSTAARESSWCRSRYRVASWGQGTQVTVSS
notes: Camel VHH
B10: mIL12Rb1_VHH11 (VHH)
VHH: B9 VHH
notes: Camel VHH
B11: mIL12Rb1_VHH13 (VHH)
VHH: B9 VHH with S105G
notes: Camel VHH
B12: mIL12Rb1_VHH1 (VHH)
VHH: QVQLQESGGGSVQAGGSLRLSCTASGYTYSSAFMAWFRQAPGKEREGVAAIYTRDGGTVYADSVKGRFTISQDNAKNTLYLQMNSLKAEDTAMYYCAAKIPQPGRASLLDSQTYDYWGQGTQVTVSS
notes: Camel VHH
B13: mIL12Rb1_VHH23 (VHH)
VHH: B12 VHH with A88P, I100M
notes: Camel VHH
B14: mIL12Rb1_VHH17 (VHH)
VHH: B12 VHH with I51M, M83I, N84H, S85T
notes: Camel VHH
B15: mIL12Rb1_VHH6 (VHH)
VHH: B12 VHH with G57S, T58P, V64L, Y80H, A88P, Q102E, A106I, Q119H
notes: Camel VHH
B16: mIL12Rb1_VHH18 (VHH)
VHH: B12 VHH with I51M, A88T
notes: Camel VHH
B17: mIL12Rb1_VHH22 (VHH)
VHH: B12 VHH with T78I
notes: Camel VHH
B18: mIL12Rb1_VHH5 (VHH)
VHH: QVQLQESGGGSVQAGETLRLSCTVSGFTIDDSEMGWYRQAPGHECELVASGSSDDDTYYVDSVKGRFTISLDNAKNMVYLQMNSLKPEDTAVYYCATGPTYPPKDGDCAHWGQGTQVTVSS
notes: Camel VHH
B19: mIL12Rb1_VHH9 (VHH)
VHH: QVQLQESGGGSVQAGGSLRLSCVASGYGYCGYDMSWYRQAPGKEREFVALITSDRSISYEDSVKARFIISRDNAANTGYLDMTRLTPDDTAIYYCKTSAAARESSWCRSRYRVASWGQGTQVTVSS
notes: Camel VHH
B20: mIL12Rb1_VHH19 (VHH)
VHH: QVQLQESGGGSVQAGGFLRLSCVASGYGYCGYDMSWYRQVPGKEREFVALITSDRSVSYEDSVKGRFSISRDNAKNTAYLEMNRLTPDDTAIYYCKTSTAARENNWCRSRYRIASWGQGTQVTVSS
notes: Camel VHH
B21: mIL12Rb1_VHH8 (VHH)
VHH: B19 VHH with S17F, D54E, S56V, A65G, I68S, A75E, D81E, T83N
notes: Camel VHH
B22: mIL12Rb1_VHH20 (VHH)
VHH: B19 VHH with A40T, S56I, I57A, A65G, A75K, L85V, S104N
notes: Camel VHH
B23: mIL12Rb1_VHH15 (VHH)
VHH: B20 VHH with I92V, S115Y
notes: Camel VHH
B24: hIL12Rb1_VHH10 (VHH)
VHH: B1 VHH
notes: Camel VHH
B25: hIL12Rb1_VHH11 (VHH)
VHH: B1 VHH
notes: Camel VHH
B26: hIL12Rb1_VHH14 (VHH)
VHH: B1 VHH with Q39R
notes: Camel VHH
B27: hIL12Rb1_VHH15 (VHH)
VHH: B1 VHH with D52N
notes: Camel VHH
B28: hIL12Rb1_VHH19 (VHH)
VHH: B1 VHH with D52N, S99G
notes: Camel VHH
B29: hIL12Rb1_VHH7 (VHH)
VHH: B1 VHH with Q39R
notes: Camel VHH
B30: hIL12Rb1_VHH22 (VHH)
VHH: B12 VHH
notes: Camel VHH
B31: hIL12Rb1_VHH20 (VHH)
VHH: B12 VHH with G57S, T58P, V64L, Y80H, A88P, Q102E, A106I, Q119H
notes: Camel VHH
B32: hIL12Rb1_VHH16 (VHH)
VHH: B12 VHH with I51M, M83I, N84H, S85T
notes: Camel VHH
B33: hIL12Rb1_VHH21 (VHH)
VHH: B12 VHH with I51M, A88T
notes: Camel VHH
B34: hIL12Rb1_VHH12 (VHH)
VHH: B12 VHH with A88P, I100M
notes: Camel VHH
B35: hIL12Rb1_VHH2 (VHH)
VHH: B12 VHH with T78I
notes: Camel VHH
B36: hIL12Rb1_VHH1 (VHH)
VHH: B19 VHH
notes: Camel VHH
B37: hIL12Rb1_VHH17 (VHH)
VHH: B20 VHH
notes: Camel VHH

molecular target: T1, extracellular domain of mouse IL12RB1 …; assay: periplasmic extract ELISA on antigen-coated plate after phage biopanning
Protocol: (§1) Upon completion of the biopanning of Example 3, three 96-well plates of individual phage clones were isolated in order to perform periplasmic extract ELISA (PE-ELISA) on IL12Rb1 coated plates to identify positive VHH binders that selectively bound IL12Rb1. A 96-well plate was coated with IL12Rb1 and PBS under the same conditions. Next, wells were blocked at 37° ° C. for 1 h. Then, 100 μl of extracted antibodies was added to each well and incubated for 1 h. Subsequently, 100 μl of anti-tag polyclonal antibody conjugated to HRP was added to each well and incubated at 37 °C for 1 h. Plates were developed with TMB substrate. The reaction was stopped by the addition of H2SO4. Absorbance at 450 nm was read on a microtiter plate reader. Antibodies with absorbance of the antigen-coated well at least threefold greater than PBS-coated control are VHHs that specifically bind to IL12Rb1. Positive clones were sequenced, and sequences analyzed to identify unique clonotypes.

binding result | Binder
binds | B1
binds | B2
binds | B3
binds | B4
binds | B5
binds | B6
binds | B7
binds | B8
binds | B9
binds | B10
binds | B11
binds | B12
binds | B13
binds | B14
binds | B15
binds | B16
binds | B17
binds | B18
binds | B19
binds | B20
binds | B21
binds | B22
binds | B23

molecular target: T2, extracellular domain of human IL12RB1 (hIL12Rb1 ECD antigen) (human, UniProt P42701 24-545); assay: as above
T2 construct: also called IL12Rβ1; CD212
Protocol: as §1

binding result | Binder
binds | B24
binds | B25
binds | B26
binds | B27
binds | B28
binds | B29
binds | B30
binds | B31
binds | B32
binds | B33
binds | B34
binds | B35
binds | B36
binds | B37
